Read-outs that look alike come from different tables or passages of the source.
What was measured:
[1] = molecular target: PKM2 (pyruvate kinase M2) (mouse (endogenous in cerebellar tissue)) (UniProt P52480); assay: cross-linking; 5 mM disuccinimidyl suberate (DSS), 30 min, room temperature, quenched with Tris, then immunoblot for PKM2; mouse cerebellar tissue of Atm-WT and Atm-KO, also with TEPP-46
[2] = molecular target: PKM2 (pyruvate kinase M2) (mouse (endogenous in cerebellar tissue)) (UniProt P52480); assay: as above; remark: listed apart in the source
[3] = molecular target: ATM (ataxia-telangiectasia mutated) kinase (mouse (endogenous in cerebellar tissue)) (UniProt Q62388); assay: non-reducing SDS-PAGE and immunoblot; ex vivo mouse cerebellar tissue culture exposed to glargine (100 nM, 2 h); proteins denatured in 2% SDS without boiling, separated under nonreducing conditions at 4 °C; the NOX4 antagonist GLX7013114 or shRNA impeded the insulin-induced dimerization

Chain of PKM2 (pyruvate kinase M2), P52480 1-531 (enzyme; other documents disagree on this pair) (P52480 whole entry): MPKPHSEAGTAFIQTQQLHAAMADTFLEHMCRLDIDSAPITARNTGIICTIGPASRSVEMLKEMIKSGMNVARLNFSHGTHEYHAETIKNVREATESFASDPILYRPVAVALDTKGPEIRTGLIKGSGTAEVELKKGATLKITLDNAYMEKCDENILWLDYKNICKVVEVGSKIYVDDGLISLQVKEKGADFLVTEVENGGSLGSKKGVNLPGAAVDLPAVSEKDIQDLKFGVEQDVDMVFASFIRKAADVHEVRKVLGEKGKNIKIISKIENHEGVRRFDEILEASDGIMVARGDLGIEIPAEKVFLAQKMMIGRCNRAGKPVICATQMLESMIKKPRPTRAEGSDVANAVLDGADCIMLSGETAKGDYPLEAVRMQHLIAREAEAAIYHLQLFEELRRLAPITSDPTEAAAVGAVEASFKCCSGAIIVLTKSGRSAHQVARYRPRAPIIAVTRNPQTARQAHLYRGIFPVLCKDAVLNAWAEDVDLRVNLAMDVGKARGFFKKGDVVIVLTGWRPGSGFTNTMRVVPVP

stoichiometry N [1] | stoichiometry N [2] | Substance | stoichiometry N [3]
4 | 2 | PKM2 (pyruvate kinase M2), P52480 1-531 (enzyme; other documents disagree on this pair) | 
 |  | ATM (ataxia-telangiectasia mutated) kinase, Q62388 1-3066 | 2

From paper PMC12540671
